Assays:
[1] = tested on: mouse epidermal stem cells; assay: Cell proliferation and differentiation of engineered mouse epidermal cells in vitro (cell cycle FACS, calcium shift western blot); format: cell-based
Protocol: (§1) Primary human neonatal epidermal keratinocytes were obtained from Thermo Fischer® (C0015C), and cultured with Epilife® medium (Thermo Fischer, M-EPICF-500) with manufacturer's recommended procedures. Calcium shift was performed to induce differentiation of primary keratinocytes by increasing the calcium concentration in culture media to 1.5 mM.
(§2) Propidium iodide (PI) staining followed by flow cytometry were used to determine the effect of cell cycle profiles. Mouse and human epidermal cells were cultured in two 6 cm cell culture dish for 24 hours, respectively. Cells were trypsinized, and 1×10^5 cells from each dish were collected, followed by one PBS wash. […] After staining, the cells were analyzed immediately using flow cytometer BD FACSCanto™ II (BD Biosciences, San Jose, CA) with an excitation wavelength at 488 nm and emission at 585 nm. DNA content and histograms of cell cycle distribution were analyzed using FlowJo™ software, version 10 (FLOWJO LLC, OR).
(§3) Western blotting was performed as described previously (Blanpain et al.). […] Visualization and quantification was carried out with the LI-COR Odyssey® scanner and software (LI-COR Biosciences).
(§4) Propidium iodide (PI) staining followed by flow cytometry were used to determine the effect of cell cycle profiles. […] DNA content and histograms of cell cycle distribution were analyzed using FlowJo™ software, version 10 (FLOWJO LLC, OR). […]

[2] = Acute drug overdose test: cocaine-induced lethality; format: in vivo, mouse; settings: 40, 80, 120, 160 mg/kg cocaine i.p.
Protocol: (§5) For all behavioral experiments except where noted, C57BL/6J mice were used. Roughly equal numbers of adult male and female mice were group-housed until surgery. Mice were maintained under controlled temperature and humidity conditions on a 12 h:12 h light:dark cycle (lights on at 7:00). Water and food were available ad libitum. Mice weighed around 25-30 g at the beginning of the experiments. All procedures followed National Institutes of Health Guide for the Care and Use of Laboratory Animal and were approved by the University of Chicago Institutional Animal Care and Use Committee.
(§6) Drug: Cocaine HCl and methamphetamine HCl (Sigma-Aldrich, Saint Louis, MO) were dissolved in sterile saline and delivered intraperitoneally at appropriates doses in a volume of 10 mL/kg. […]
(§7) Acute drug overdose test: Two weeks after grafting surgery, 4 groups of GhBChE and 4 groups of GWT mice (n=8 each in each group) received i.p. injections of cocaine at 40, 120, and 160 mg/kg. […] Mice were monitored for 2 h following injection and percent of cocaine- and METH-induced lethality was calculated.
(§8) To first determine whether engrafting hBChE-expressing cells protects mice from acute systemic toxicity of cocaine, we delivered different doses of cocaine to grafted mice and calculated the lethality rates of cocaine. […]

[3] = cocaine hydrolysis; cited from earlier work
[4] = tested on: human epidermal keratinocytes; assay: Cell proliferation and differentiation of engineered human epidermal cells in vitro; format: cell-based
Protocol: as §1, §2, §3, §4

[5] = Acute drug overdose test: METH-induced lethality; format: in vivo, mouse; settings: 34, 68, 100, 160 mg/kg METH i.p.
Protocol: as §5, §6, §7, §8

[6] = after i.v. injection; cited from earlier work

B1: hBChE: modified human butyrylcholinesterase (E30-6, SEQ ID NO: 41), cocaine hydrolase, expressed from engineered epidermal cells / skin grafts (protein)
chain: MHSKVTIICIRFLFWFLLLCMLIGKSHTEDDIIIATKNGKVRGMNLTVFGGTVTAFLGIPYAQPPLGRLRFKKPQSLTKWSDIWNATKYANSCCQNIDQSFPGFHGSEMWNPNTDLSEDCLYLNVWIPAPKPKNATVLIWIYGGGFQTGTSSLHVYDGKFLARVERVIVVSMNYRVGALGFLALPGNPEAPGNMGLFDQQLALQWVQKNIAAFGGNPKSVTLFGESSGAASVSLHLLSPGSHSLFTRAILQSGSANAPWAVTSLYEARNRTLNLAKLTGCSRENETEIIKCLRNKDPQEILLNEAFVVPYGTALGVNFGPTVDGDFLTDMPDILLELGQFKKTQILVGVNKDEGTWFLVGGAPGFSKDNNSIITRKEFQEGLKIFFPGVSEFGKESILFHYTDWVDDQRPENYREALGDVVGDYNFICPALEFTKKFSEWGNNAFFYYFEHRSSKLPWPEWMGVMHGYEIEFVFGLPLERRDNYTKAEEILSRSIVKRWANFAKYGNPNETQNNSTSWPVFKSTEQKYLTLNTESTRIMTKLRAQQCRFWTSFFPKVLEMTGNIDEAEWEWKAGFHRWNNYMMDWKNQFNDYTSKKESCVGL
modifications: Human mutant BChE
[1]
  effect of expression on cell proliferation / differentiation in vitro: did not significantly change cell proliferation
[2]
  cocaine-induced lethality in GhBChE mice: nearly lethality
[3]
  catalytic efficiency (kcat/KM) relative to wild-type (WT) hBChE: more than 4400 times
[4]
  effect of expression on cell proliferation / differentiation in vitro: did not significantly change cell proliferation
[5]
  METH-induced lethality, GhBChE vs GWT: no difference in lethality
[6]
  half-life in vivo: short half-life in vivo

Source: US20230392126A1, “TISSUE ORGANOIDS” (priority 2016, published 2023)
